Values quoted from earlier work, collected in patent US20180147231A1, “METHOD FOR TREATMENT AND PROGNOSIS OF COLORECTAL CANCER” (Oxford University Innovation Limited, priority 2015, published 2018).

T1: IL-22R complex (Homo sapiens, UniProt Q08334+Q8N6P7)
T1 sequence (Q8N6P7 16-228 limits assumed): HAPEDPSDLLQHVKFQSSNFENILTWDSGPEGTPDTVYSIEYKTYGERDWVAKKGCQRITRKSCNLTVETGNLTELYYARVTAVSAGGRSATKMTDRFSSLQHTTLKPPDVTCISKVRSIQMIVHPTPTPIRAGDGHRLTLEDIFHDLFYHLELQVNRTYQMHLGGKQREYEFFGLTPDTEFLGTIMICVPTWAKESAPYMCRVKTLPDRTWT
T1 sequence (Q08334 20-220 limits assumed): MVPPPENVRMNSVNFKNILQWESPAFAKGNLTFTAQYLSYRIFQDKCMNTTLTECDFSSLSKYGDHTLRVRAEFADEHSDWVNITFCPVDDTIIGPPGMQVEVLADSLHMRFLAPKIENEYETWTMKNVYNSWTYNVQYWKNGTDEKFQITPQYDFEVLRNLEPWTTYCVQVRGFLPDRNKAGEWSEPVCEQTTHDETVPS

T2: IL-22RA1 subunit of the receptor (Homo sapiens, UniProt Q8N6P7)
T2 sequence (Q8N6P7 16-574): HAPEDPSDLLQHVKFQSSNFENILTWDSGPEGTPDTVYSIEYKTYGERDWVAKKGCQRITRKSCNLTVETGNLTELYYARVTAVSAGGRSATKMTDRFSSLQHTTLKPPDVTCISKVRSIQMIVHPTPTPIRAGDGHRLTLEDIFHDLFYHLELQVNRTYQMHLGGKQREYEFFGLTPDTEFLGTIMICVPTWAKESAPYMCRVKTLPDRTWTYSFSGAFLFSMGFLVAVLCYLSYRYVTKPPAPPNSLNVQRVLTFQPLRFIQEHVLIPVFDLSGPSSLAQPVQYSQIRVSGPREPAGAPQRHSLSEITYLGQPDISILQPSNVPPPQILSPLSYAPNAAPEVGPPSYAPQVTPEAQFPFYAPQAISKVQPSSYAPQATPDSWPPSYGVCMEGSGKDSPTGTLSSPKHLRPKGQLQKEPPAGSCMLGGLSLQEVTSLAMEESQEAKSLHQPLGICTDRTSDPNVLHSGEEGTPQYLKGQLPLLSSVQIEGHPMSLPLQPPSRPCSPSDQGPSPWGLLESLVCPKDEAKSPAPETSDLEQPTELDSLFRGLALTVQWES


Key:
IL-22R complex = biological target: T1, IL-22R complex; settings: variant of IL-22 (SEQ ID NO: 5) compared with wild type; cited from earlier work
[1] = biological target: T2, IL-22RA1 subunit of the receptor; settings: variant of IL-22 (SEQ ID NO: 5) compared with wild type; cited from earlier work

Molecule | Binding to the IL-22R complex (IL-22R complex) | Binding to the IL-22RA1 subunit of the receptor [1]
N54G: reduced-function variant of IL-22 (SEQ ID NO: 5) in which N54 is mutated from asparagine to glutamine (protein, listed as Homo sapiens) MAALQKSVSSFLMGTLATSCLLLLALLVQGGAAAPISSHCRLDKSNFQQPYITGRTFMLAKEASLADNNTDVRLIGEKLFHGVSMSERCYLMKQVLNFTLEEVLFPQSDRFQPYMQEVVPFLARLSNRLSTCHIEGDDLHIQRNVQKLKDTVKKLGESGEIKAIGELDLLFMSLRNACI | reduce binding | –
I161A: variant of IL-22 (SEQ ID NO: 5) in which I161 is mutated to alanine (protein, listed as Homo sapiens) MAALQKSVSSFLMGTLATSCLLLLALLVQGGAAAPISSHCRLDKSNFQQPYITNRTFMLAKEASLADNNTDVRLIGEKLFHGVSMSERCYLMKQVLNFTLEEVLFPQSDRFQPYMQEVVPFLARLSNRLSTCHIEGDDLHIQRNVQKLKDTVKKLGESGEAKAIGELDLLFMSLRNACI | – | reduce binding
N54A: variant of IL-22 (SEQ ID NO: 5) in which N54 is mutated to alanine (protein, listed as Homo sapiens) MAALQKSVSSFLMGTLATSCLLLLALLVQGGAAAPISSHCRLDKSNFQQPYITARTFMLAKEASLADNNTDVRLIGEKLFHGVSMSERCYLMKQVLNFTLEEVLFPQSDRFQPYMQEVVPFLARLSNRLSTCHIEGDDLHIQRNVQKLKDTVKKLGESGEIKAIGELDLLFMSLRNACI | reduce binding | –
V72A: variant of IL-22 (SEQ ID NO: 5) in which V72 is mutated to A (protein, listed as Homo sapiens) MAALQKSVSSFLMGTLATSCLLLLALLVQGGAAAPISSHCRLDKSNFQQPYITNRTFMLAKEASLADNNTDARLIGEKLFHGVSMSERCYLMKQVLNFTLEEVLFPQSDRFQPYMQEVVPFLARLSNRLSTCHIEGDDLHIQRNVQKLKDTVKKLGESGEIKAIGELDLLFMSLRNACI | – | reduce binding
R55A: variant of IL-22 (SEQ ID NO: 5) in which R55 is mutated to alanine (protein, listed as Homo sapiens) MAALQKSVSSFLMGTLATSCLLLLALLVQGGAAAPISSHCRLDKSNFQQPYITNATFMLAKEASLADNNTDVRLIGEKLFHGVSMSERCYLMKQVLNFTLEEVLFPQSDRFQPYMQEVVPFLARLSNRLSTCHIEGDDLHIQRNVQKLKDTVKKLGESGEIKAIGELDLLFMSLRNACI | reduce binding | –
K162A: variant of IL-22 (SEQ ID NO: 5) in which K162 is mutated to alanine (protein, listed as Homo sapiens) MAALQKSVSSFLMGTLATSCLLLLALLVQGGAAAPISSHCRLDKSNFQQPYITNRTFMLAKEASLADNNTDVRLIGEKLFHGVSMSERCYLMKQVLNFTLEEVLFPQSDRFQPYMQEVVPFLARLSNRLSTCHIEGDDLHIQRNVQKLKDTVKKLGESGEIAAIGELDLLFMSLRNACI | – | reduce binding
Y51A: variant of IL-22 (SEQ ID NO: 5) in which Y51 is mutated to A (protein, listed as Homo sapiens) MAALQKSVSSFLMGTLATSCLLLLALLVQGGAAAPISSHCRLDKSNFQQPAITNRTFMLAKEASLADNNTDVRLIGEKLFHGVSMSERCYLMKQVLNFTLEEVLFPQSDRFQPYMQEVVPFLARLSNRLSTCHIEGDDLHIQRNVQKLKDTVKKLGESGEIKAIGELDLLFMSLRNACI | reduce binding | –
T56A: variant of IL-22 (SEQ ID NO: 5) in which T56 is mutated to alanine (protein, listed as Homo sapiens) MAALQKSVSSFLMGTLATSCLLLLALLVQGGAAAPISSHCRLDKSNFQQPYITNRAFMLAKEASLADNNTDVRLIGEKLFHGVSMSERCYLMKQVLNFTLEEVLFPQSDRFQPYMQEVVPFLARLSNRLSTCHIEGDDLHIQRNVQKLKDTVKKLGESGEIKAIGELDLLFMSLRNACI | reduce binding | –
F121A: variant of IL-22 (SEQ ID NO: 5) in which F121 is mutated to alanine (protein, listed as Homo sapiens) MAALQKSVSSFLMGTLATSCLLLLALLVQGGAAAPISSHCRLDKSNFQQPYITNRTFMLAKEASLADNNTDVRLIGEKLFHGVSMSERCYLMKQVLNFTLEEVLFPQSDRFQPYMQEVVPALARLSNRLSTCHIEGDDLHIQRNVQKLKDTVKKLGESGEIKAIGELDLLFMSLRNACI | reduce binding | –
D67A: variant of IL-22 (SEQ ID NO: 5) in which D67 is mutated to alanine (protein, listed as Homo sapiens) MAALQKSVSSFLMGTLATSCLLLLALLVQGGAAAPISSHCRLDKSNFQQPYITNRTFMLAKEASLAANNTDVRLIGEKLFHGVSMSERCYLMKQVLNFTLEEVLFPQSDRFQPYMQEVVPFLARLSNRLSTCHIEGDDLHIQRNVQKLKDTVKKLGESGEIKAIGELDLLFMSLRNACI | – | reduce binding
E117A: variant of IL-22 (SEQ ID NO: 5) in which E117 is mutated to alanine (protein, listed as Homo sapiens) MAALQKSVSSFLMGTLATSCLLLLALLVQGGAAAPISSHCRLDKSNFQQPYITNRTFMLAKEASLADNNTDVRLIGEKLFHGVSMSERCYLMKQVLNFTLEEVLFPQSDRFQPYMQAVVPFLARLSNRLSTCHIEGDDLHIQRNVQKLKDTVKKLGESGEIKAIGELDLLFMSLRNACI | reduce binding | –
